Common to all, as to experiment: competition ELISA, antibody preincubated with target, AMH-coated plate
For test [1], the target named is T1, AMH truncated antigen 31-44 (human).
T1 sequence (peptide): AVGTSGLIFREDLD

Test [2] deals with T2, AMH truncated antigen 36-44 (human).
T2 sequence (peptide): GLIFREDLD

The target of test [3] is T3, AMH truncated antigen 37-43 (human).
T3 sequence (peptide): LIFREDL

Test [4] concerns the target T4, AMH truncated antigen 38-44 (human).
T4 sequence (peptide): IFREDLD

The target of test [5] is T5, AMH truncated antigen 39-45 (human).
T5 sequence (peptide): FREDLDW

In test [6] the target is T6, AMH truncated antigen 41-47 (human).
T6 sequence (peptide): EDLDWPP

In test [7] the target is T7, AMH truncated antigen 41-50 (human).
T7 sequence (peptide): EDLDWPPGSP

Test [8] addresses T8, AMH truncated antigen 41-51 (human).
T8 sequence (peptide): EDLDWPPGSPQ

In test [9] the target is T9, AMH truncated antigen 41-55 (human).
T9 sequence (peptide): EDLDWPPGSPQEPLC

Test [10] concerns the target T10, AMH truncated antigen 42-50 (human).
T10 sequence (peptide): DLDWPPGSP

Test [11] addresses T11, AMH truncated antigen 42-51 (human).
T11 sequence (peptide): DLDWPPGSPQ

Test [12] concerns the target T12, AMH truncated antigen 61-75 (human).
T12 sequence (peptide): GDSNGSSSPLRVVGA

The target of test [13] is T13, AMH3647-14 (Little mole rat sequence) (Little mole rat).
T13 sequence (peptide): GLIFLQDGMWSP

In test [14] the target is T14, AMH3647-21 (Sheep sequence) (Sheep).
T14 sequence (peptide): TLIFQQGWDWPL

For test [15], the target named is T15, AMH3647-26 (Monkey sequence) (Monkey).
T15 sequence (peptide): GLIFREDLGWPP

For test [16], the target named is T16, AMH3647-5 (Diademed Sifaka sequence) (Diademed Sifaka).
T16 sequence (peptide): GLIFHEDWDWPP

Test [17] has as its target T17, AMH3647-1 (Deer sequence) (Deer).
T17 peptide: ALIFQQDWDWPL

The target of test [18] is T18, AMH3647-2 (Beaver sequence) (Beaver).
T18 peptide: DLIFHEDWAWPP

The target of test [19] is T19, AMH3647-6 (Otolemur sequence) (Otolemur).
T19 peptide: GLIFHKDWDWQP

Test [20] addresses T20, AMH3647-11 (Neotoma sequence) (Neotoma).
T20 peptide: GLIFLEDGIWPP

Test [21] has as its target T21, AMH3647-16 (Degu sequence) (Degu).
T21 peptide: GLIFPEDWVWPP

Test [22] concerns the target T22, AMH3647-18 (Simum sequence) (Simum).
T22 peptide: GLIFRQDWDWPP

Test [23] concerns the target T23, AMH3647-20 (Goat sequence) (Goat).
T23 peptide: TLIFQQDWDWPL

From patent publication US20220146515A1 (XIAMEN INNODX BIOTECH, published 2022) come the findings set out here.

B1: monoclonal antibody C9F2-2 (antibody, V domains shown)
VH: EVQLVESGGGLVKPGGSLKLSCAASGFAFSTYDMSWVRQTPEKRLEWVAYISPGGGATYYPDTVKGRFTISRDNAKNTLYLQMTSLKSEDTAMYYCAGRRDYYGMDYWGQGTSVTVSS
VL: DVVMTQTPLSLPVSLGDQASISCRSSQSLVHSNGNTYLHWYLQKPGQSPKLLIYKVSNRFSGVPDRFSGSGSGTDFTLKISRVEAEDLGVYFCSQSTHVPWTFGGGTKLEIK
notes: Mouse hybridoma antibody purified from ascites; the tie is indirect; also called hybridoma CCTCC NO: C2018183
For B1, the percent inhibition was determined as 38% in test [1]; 32% in [2]; 57% in test [3]; 33% in test [4]; 68% in [5]; 64% in test [6]. Also, the percent inhibition in test [7] stood at 65%; in [8], 71%; in test [9] it was 68%; in test [10], 57%; in test [11], 60%; in test [12], 35%. Moreover, the percent inhibition was 29% in [13]; 10% in [14]; 61% in test [15]; 32% in [16]; -6% in test [17]; 11% in [18]. For the same molecule, the percent inhibition in test [19] was 3%; in test [20] it was 5%; in [21], -2%; in test [22], 19%; in test [23], 3%.
